# Measured values taken from PMC9248843, “Structural and biophysical studies of new L-asparaginase variants: lessons from random mutagenesis of the prototypic Escherichia coli Ntn-amidohydrolase” (Acta Crystallographica. Section D, Structural Biology, 2022).
# B1: EcAIII variant RDM1-64, unprocessed immature precursor (enzyme, Escherichia coli, UniProt P37595 1-321, looked up)
# chain: MGKAVIAIHGGAGAISRAQMSLQQELRYIEALSAIVETGQKMLEAGESALDVVTEAVRLLEECPLFNAGIGAVFTRDETHELDACVMDGNTLKAGAVAGVSHLRNPVLAARLVMEQSPHVMMIGEGAENFAFARGMERVSPEIFSTSLRYEQLLAARKEGATVLDHSGAPLDEKQKMGTVGAVALDLDGNLAAATSTGGMTNKLPIVVGIGPLVGAGCYANNASVAVSCTGTGEVFIRALAAYDIAALMDYGGLSLAEACERVVMEKLPALGGSGGLIAIDHEGNVALPFNTEGMYRAWGYAGDTPTTGIYREKGDTVATQ
# notes: EcAIII of Escherichia coli, uncleaved immature precursor (α and β on one chain, linker intact), with the substitutions of RDM1-64; No ability to process into α/β subunits; EcAIII gene in pET-11d; source: E. coli BL21 Gold, purified (DEAE-Sepharose, SEC)
# Target: the molecule itself
# Assay: SEC; SEC profiles of Supplementary Fig. S4; before biophysical measurements proteins were run on Superdex 75 10/300 GL in 20 mM phosphate buffer pH 7.5
protein,measurement,value
B1,binding result,binds
